Test results: patent publication US12280118B2 (Kyowa Kirin Co., Ltd., priority 2017, dated 2025)

Tests used:
Assay type in all cases: cell-based
human Tregs = test: Treg proliferation activity; conditions: for Treg proliferation activity: with respect to IL-2 (P) or 8His-IL-2 (P) as control
Method: After human frozen peripheral blood mononuclear cells (PBMCs) (manufactured by AllCells) were melted in a warm bath at 37° C., the cells were suspended in 10 mL of a culture medium [X-vivo15 SFM (manufactured by Lonza) 1000 mL, heat-inactivated human AB serum (manufactured by SIGMA) 150 mL], and a T-75 flask for adhesion (manufactured by greiner bio-one) was seeded the cells, and allowed to stand for 24 hours to culture the cells (37° C., under conditions of 95 vol % air/5 vol % CO2). A total amount of cells was collected, and CD4^+ T cells were enriched using EasySep Human CD4^+ Tcells Enrichment kit (manufactured by […] Technologies).
After staining (on ice, 30 minutes) with Anti-human CD4-Alexa 488 (manufactured by Biolegend), anti-human CD25-PE (manufactured by BD Pharmingen), and anti-human CD127-BV421 (manufactured by Biolegend), a CD4^+ CD25^+ CD127^low fraction (Treg) was separated using a cell sorter SH800 (manufactured by SONY Biotechnology).
The separated Treg and CD3/CD28 Dynabeads (manufactured by Thermo Fischer […]) washed three times with the culture medium were mixed with each other, and suspended in a culture medium at 3.4×10^4 cells/mL, respectively, and a 96-well U bottom plate (manufactured by Corning) was seeded with at 150 μL/well.
After culturing for 5 to 7 days, 50 μL of a total volume of each well was transferred to a 96-well white plate. A Celltiter-Glo solution was added at 50 μL/well, and the mixture was allowed to stand at room temperature for 10 minutes, and then a luminescence value was measured using a luminometer (manufactured by TURNER BIOSYSTEMS).

human NK cells = test: NK cell proliferation activity; conditions: for cell proliferation activity on NK cells: compared with IL-2 (P) and 8His-IL-2 as controls
Method: A separation of NK cells from human PBMC was performed by a method below. Frozen human PBMC was thawed according to the method described in Example 13, and CD56^+ NK cells were separated using NK Cell Isolation Kit human (manufactured by Miltenyi Biotech). The separated cells were washed three times with a culture medium (1500 rpm, room temperature, 5 minutes) and then subjected to a proliferation assay below.
FIGS. 2A to 2H show results obtained using a proliferation medium, and FIGS. 2I to 2K show results obtained using the X-vivo 10 SFM.

human Tresp = test: Inhibitory activity of IL-2-stimulated Tregs on Tresp proliferation; conditions: Tregs cultured 7 days with IL-2 (final concentration 65 nM); compared with unstimulated Treg
Method: All cells were separated from each other by the same lot of frozen human PBMC.
Seven days before the assay, Tregs were separated from the frozen human PBMCs as described in Example 13.
The cell preparation on the day of test was performed as follows. Tregs were separated from the frozen human PBMC by the method described in Example 13 and used as unstimulated Tregs. After CD3^+CD25^− T cells were separated from the frozen human PBMC, by using EasySep Human T Cell Enrichment Kit (manufactured by [sequence] Technologies) and EasySep Human Pan-CD25 Positive Selection and Depletion Kit (manufactured by [sequence] Technologies), the cells were labeled by reacting Celltrace violet (manufactured by Thermo Fischer [sequence]) diluted to 40 μmol/L with a 10% FBS-containing RPMI1640 medium, at room temperature for 5 minutes.
The obtained cells were used as responder T cells (Tresp). HLA-DR+ cells were separated from frozen human PBMCs using Anti-HLA-DR MicroBeads, human (manufactured by Miltenyi Biotec). The obtained cells were used as Antigen presenting cell (APC).
After the obtained cells were suspended in X-vivo 15 SFM to which an anti-CD3 antibody OKT3 (manufactured by Biolegend) was added to obtain a final concentration of 0.5 μg/mL, a 96-well V-bottom plate (manufactured by Sumitomo Bakelite) was seeded with Tresp at 2×10^4 cells/well (50 μL), APC at 1×10^5 cells/well (50 μL), and Tregs at 1.6×10^2 to 5×10^3 cells/well (50 μL) (Tresp:Treg=4:1 to 128:1), and the cells were cultured at 37° C. under 5% CO2 for 4 days.
Thereafter, the cells were stained with anti-human CD4-APC (manufactured by BD Pharmingen) and anti-human CD8-PE (manufactured by BD Pharmingen) (at room temperature for 15 minutes), and then various fluorescent intensities were measured by flow cytometer FACS Canto II (manufactured by BD Biosciences).
The obtained data was exported as FCS file, and then analyzed using data analysis software FLowJo (TreeStar, version 7.6.5) for a division index value, which is an average number of cell divisions in CD4^+ Tresp or CD8^+ Tresp.

Row | Molecule | Treg proliferation activity (human Tregs) | cell proliferation activity on NK cells (human NK cells) | proliferation of Tresp in the presence of IL-2-stimulated Tregs (human Tresp) | IL-2-dependent cell proliferation rate (human Tregs; Treg, IL-2 concentration of 65 nmol/L) [%] | IL-2-dependent cell proliferation rate (human NK cells; NK cells, X-vivo 10 SFM, IL-2 concentration of 65 nmol/L) [%]
1 | L19C-9: glycosylated IL-2 variant; L19 to C-asialo | maintained | greatly reduced | inhibited | – | –
2 | N88C-2: glycosylated IL-2 variant; N88 to C-lactose | maintained | greatly reduced | inhibited | – | –
3 | E15C-11: glycosylated IL-2 variant; E15 to C-disialo; C125S | maintained | greatly reduced | – | – | –
4 | H16C-2: glycosylated IL-2 variant; H16 to C-lactose | maintained | greatly reduced | inhibited | – | –
5 | F78C-V40(IAc)/L12C-11: Cys-PEGylated and glycosylated IL-2 variant; F78 to C-V40(IAc); L12 to C-disialo; C125S (protein, UniProt P60568 21-153, looked up, variant L12C F78C C125S, PEG on C78; disialo glycan on C12, Cys-PEGylated and glycosylated IL-2 variant; F78 to C-V40(IAc); L12 to C-disialo; C125S) Interleukin-2: APTSSSTKKTQCQLEHLLLDLQMILNGINNYKNPKLTRMLTFKFYMPKKATELKHLQCLEEELKPLEEVLNLAQSKNCHLRPRDLISNINVIVLELKGSETTFMCEYADETATIVEFLNRWITFSQSIISTLT | lowered | greatly reduced | – | ≥ 80 | –
6 | T3C-Y50(IAc)/E15C-11: Cys-PEGylated and glycosylated IL-2 variant; T3 to C-Y50(IAc); E15 to C-disialo; C125S (protein, UniProt P60568 21-153, looked up, variant T3C E15C C125S, PEG on C3; disialo glycan on C15, Cys-PEGylated and glycosylated IL-2 variant; T3 to C-Y50(IAc); E15 to C-disialo; C125S) Interleukin-2: APCSSSTKKTQLQLCHLLLDLQMILNGINNYKNPKLTRMLTFKFYMPKKATELKHLQCLEEELKPLEEVLNLAQSKNFHLRPRDLISNINVIVLELKGSETTFMCEYADETATIVEFLNRWITFSQSIISTLT | maintained | greatly reduced | – | – | –
7 | T3C-V80(Mal)/E15C-11: Cys-PEGylated and glycosylated IL-2 variant; T3 to C-V80(Mal); E15 to C-disialo; C125S (protein, UniProt P60568 21-153, looked up, variant T3C E15C C125S, maleimide PEG on C3; disialo glycan on C15, Cys-PEGylated and glycosylated IL-2 variant; T3 to C-V80(Mal); E15 to C-disialo; C125S) Interleukin-2: APCSSSTKKTQLQLCHLLLDLQMILNGINNYKNPKLTRMLTFKFYMPKKATELKHLQCLEEELKPLEEVLNLAQSKNFHLRPRDLISNINVIVLELKGSETTFMCEYADETATIVEFLNRWITFSQSIISTLT | lowered | greatly reduced | – | – | –
8 | T3C-Li20(IAc)/L12C-11/V91C-11: Cys-PEGylated and glycosylated IL-2 variant; T3 to C-Li20(IAc); L12, V91 to C-disialo; C125S (protein, UniProt P60568 21-153, looked up, variant T3C L12C V91C C125S, PEG on C3; disialo glycans, Cys-PEGylated and glycosylated IL-2 variant; T3 to C-Li20(IAc); L12, V91 to C-disialo; C125S) Interleukin-2: APCSSSTKKTQCQLEHLLLDLQMILNGINNYKNPKLTRMLTFKFYMPKKATELKHLQCLEEELKPLEEVLNLAQSKNFHLRPRDLISNINCIVLELKGSETTFMCEYADETATIVEFLNRWITFSQSIISTLT | lowered | greatly reduced | – | – | –
9 | A1C-11/T3C-11/S5C-11/L12C-11/V91C-11: glycosylated IL-2 variant; A1, T3, S5, L12, V91 to C-disialo; C125S (protein, UniProt P60568 21-153, looked up, variant A1C T3C S5C L12C V91C C125S, disialo glycans on cysteines, glycosylated IL-2 variant; A1, T3, S5, L12, V91 to C-disialo; C125S) Interleukin-2: CPCSCSTKKTQCQLEHLLLDLQMILNGINNYKNPKLTRMLTFKFYMPKKATELKHLQCLEEELKPLEEVLNLAQSKNFHLRPRDLISNINCIVLELKGSETTFMCEYADETATIVEFLNRWITFSQSIISTLT | lowered | greatly reduced | – | – | ≤ 20
10 | V91C-11/V115C-11: glycosylated IL-2 variant; V91, V115 to C-disialo; C125S (protein, UniProt P60568 21-153, looked up, variant V91C V115C C125S, disialo glycans on cysteines, glycosylated IL-2 variant; V91, V115 to C-disialo; C125S) Interleukin-2: APTSSSTKKTQLQLEHLLLDLQMILNGINNYKNPKLTRMLTFKFYMPKKATELKHLQCLEEELKPLEEVLNLAQSKNFHLRPRDLISNINCIVLELKGSETTFMCEYADETATICEFLNRWITFSQSIISTLT | maintained | greatly reduced | – | – | –
